In patent US20220040319A1 (Regeneron, published 2022):
Where two headings read alike, the source gives them in different places.

Tests used:
[1] = biological target: T1, hMet.mmh (human MET extracellular domain with C-terminal myc-myc-hexahistidine tag) (human, UniProt P08581 309-914; P08581 27-307); assay: SPR 37C, antibody captured
T1 construct: soluble monomeric MET; also called monomeric human MET
Procedure: (§1) The anti-Met antibodies tested in this example were bivalent monospecific binders of MET.
(§2) Kinetic association (kₐ) and dissociation (kd) rate constants were determined by fitting the real-time sensorgrams to a 1:1 binding model using Scrubber 2.0c curve fitting software. Binding dissociation equilibrium constant (KD) and dissociative half-life (t1/2) were calculated from the kinetic rate constants as: […]

[2] = biological target: T2, hMET.mFc (dimeric human MET) (human, UniProt P08581 27-307); assay: SPR 37C, antibody captured
T2 construct: soluble dimeric MET protein
Procedure: as §1, §2

[3] = biological target: T1, hMet.mmh (human MET extracellular …); assay: SPR 37C, antibody captured; remark: listed apart in the source
Procedure: (§3) Kinetic association (kₐ) and dissociation (kd) rate constants were determined as described in Example 3.

[4] = biological target: T3, human MET on cells (human, UniProt P08581 25-1390); assay: cell-based or functional assay
[5] = biological target: T3, human MET on cells; assay: cell-based or functional assay; remark: listed apart in the source
[6] = biological target: T4, MET (c-Met, hepatocyte growth factor receptor) on cells (human, UniProt P08581 25-1390); assay: cell-based or functional assay
[7] = biological target: T4, MET (c-Met, hepatocyte growth factor …); assay: cell-based or functional assay; remark: listed apart in the source
[8] = biological target: T1, hMet.mmh (human MET extracellular …); assay: SPR 37C, antibody captured; remark: listed apart in the source
Procedure: as §3

[9] = biological target: T3, human MET on cells; assay: cell-based or functional assay; remark: listed apart in the source
[10] = biological target: T3, human MET on cells; assay: flow cytometry, 10 µg/ml antibody on A549 cells, Alexa647 anti-human secondary
Procedure: (§4) After one additional wash with FACS buffer, samples were fixed with Cytofix (BD Biosciences, #554655), filtered with FACS buffer and run on an iQue flow cytometer (Intelicyte). Mean fluorescence intensity (MFI) data was determined using FlowJo software (FlowJo LLC).

[11] = biological target: T3, human MET on cells; assay: flow cytometry, 10 µg/ml antibody on EBC-1 cells, Alexa647 anti-human secondary
Procedure: as §4

[12] = biological target: T3, human MET on cells; assay: flow cytometry, 10 µg/ml antibody on SNU-5 cells, Alexa647 anti-human secondary
Procedure: as §4

[13] = biological target: T3, human MET on cells; assay: flow cytometry, 10 µg/ml antibody on U87MG cells, Alexa647 anti-human secondary
Procedure: as §4

[14] = biological target: T3, human MET on cells; assay: flow cytometry, 10 µg/ml antibody on Hs746t cells, Alexa647 anti-human secondary
Procedure: as §4

[15] = biological target: T3, human MET on cells; assay: flow cytometry, 10 µg/ml antibody on MKN-45 cells, Alexa647 anti-human secondary
Procedure: as §4

[16] = biological target: T3, human MET on cells; assay: flow cytometry, 10 µg/ml antibody on MDA-MB-231 cells, Alexa647 anti-human secondary
Procedure: as §4

[17] = biological target: T3, human MET on cells; assay: cell-based or functional assay; remark: listed apart in the source
[18] = biological target: T5, human MET (exon14 skip mutation) on NCI-H596 cells (human, UniProt P08581 25-1390); assay: cell-based or functional assay
[19] = biological target: T3, human MET on cells; assay: cell-based or functional assay; remark: listed apart in the source
[20] = biological target: T5, human MET (exon14 skip mutation) on …; assay: cell-based or functional assay; remark: listed apart in the source
[21] = biological target: T3, human MET on cells; assay: cell-based or functional assay; remark: listed apart in the source

T4 sequence (P08581 25-1390 limits assumed, form in doubt): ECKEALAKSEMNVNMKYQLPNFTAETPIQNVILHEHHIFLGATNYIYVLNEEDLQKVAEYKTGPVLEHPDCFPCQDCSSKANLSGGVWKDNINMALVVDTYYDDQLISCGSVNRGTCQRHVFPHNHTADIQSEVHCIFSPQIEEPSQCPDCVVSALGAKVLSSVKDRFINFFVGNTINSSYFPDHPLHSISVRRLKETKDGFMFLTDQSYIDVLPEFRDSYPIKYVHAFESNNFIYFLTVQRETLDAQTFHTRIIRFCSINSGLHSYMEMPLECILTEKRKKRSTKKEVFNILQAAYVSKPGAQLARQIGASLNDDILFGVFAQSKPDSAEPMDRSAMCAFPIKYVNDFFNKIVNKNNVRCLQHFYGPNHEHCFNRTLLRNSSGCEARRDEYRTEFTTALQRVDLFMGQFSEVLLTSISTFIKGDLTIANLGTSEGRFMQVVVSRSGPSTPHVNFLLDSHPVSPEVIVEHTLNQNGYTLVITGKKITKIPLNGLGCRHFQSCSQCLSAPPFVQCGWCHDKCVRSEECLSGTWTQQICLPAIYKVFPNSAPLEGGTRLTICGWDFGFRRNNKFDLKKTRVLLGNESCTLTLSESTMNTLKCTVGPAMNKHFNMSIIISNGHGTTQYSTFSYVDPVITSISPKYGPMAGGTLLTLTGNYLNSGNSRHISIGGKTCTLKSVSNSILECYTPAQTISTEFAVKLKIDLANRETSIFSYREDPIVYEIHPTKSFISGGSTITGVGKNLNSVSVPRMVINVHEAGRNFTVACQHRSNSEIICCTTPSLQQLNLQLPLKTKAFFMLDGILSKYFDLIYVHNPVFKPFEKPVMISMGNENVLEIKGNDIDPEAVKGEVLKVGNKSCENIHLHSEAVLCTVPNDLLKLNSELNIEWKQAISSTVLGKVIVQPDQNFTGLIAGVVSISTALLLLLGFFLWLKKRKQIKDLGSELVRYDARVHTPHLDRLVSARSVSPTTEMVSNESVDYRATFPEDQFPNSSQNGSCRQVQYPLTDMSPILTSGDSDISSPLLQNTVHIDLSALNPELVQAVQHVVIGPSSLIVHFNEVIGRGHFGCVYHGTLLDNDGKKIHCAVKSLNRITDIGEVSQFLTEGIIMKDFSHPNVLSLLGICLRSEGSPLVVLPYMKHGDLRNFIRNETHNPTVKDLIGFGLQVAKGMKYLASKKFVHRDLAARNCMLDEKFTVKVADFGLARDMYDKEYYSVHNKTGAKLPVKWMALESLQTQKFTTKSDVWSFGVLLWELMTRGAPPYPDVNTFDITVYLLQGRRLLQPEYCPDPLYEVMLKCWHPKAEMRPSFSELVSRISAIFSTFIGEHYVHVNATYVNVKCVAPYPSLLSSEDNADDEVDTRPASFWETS
T3 sequence (P08581 25-1390 limits assumed, form in doubt): as above
T1 sequence (P08581 other isoform, or with tags, fused parts or gaps limits assumed, chain 1 of 2): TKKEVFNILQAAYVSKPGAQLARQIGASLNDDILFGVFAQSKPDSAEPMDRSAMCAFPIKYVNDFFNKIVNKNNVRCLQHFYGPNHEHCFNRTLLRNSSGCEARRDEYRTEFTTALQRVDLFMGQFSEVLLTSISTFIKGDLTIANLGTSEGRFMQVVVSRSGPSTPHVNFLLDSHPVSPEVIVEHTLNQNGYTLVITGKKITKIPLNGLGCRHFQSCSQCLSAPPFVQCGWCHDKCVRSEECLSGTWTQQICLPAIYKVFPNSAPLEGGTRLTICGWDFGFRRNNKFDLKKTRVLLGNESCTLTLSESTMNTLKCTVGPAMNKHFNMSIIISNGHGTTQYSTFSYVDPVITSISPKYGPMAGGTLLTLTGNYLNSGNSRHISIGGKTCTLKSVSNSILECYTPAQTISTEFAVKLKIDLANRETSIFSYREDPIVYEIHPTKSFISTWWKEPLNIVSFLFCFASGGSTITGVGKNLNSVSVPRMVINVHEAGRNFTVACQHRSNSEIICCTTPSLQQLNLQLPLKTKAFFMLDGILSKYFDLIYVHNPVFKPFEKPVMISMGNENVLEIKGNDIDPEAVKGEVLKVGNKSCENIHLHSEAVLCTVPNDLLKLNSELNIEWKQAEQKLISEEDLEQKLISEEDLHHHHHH
T1 sequence (P08581 27-307 limits assumed, chain 2 of 2): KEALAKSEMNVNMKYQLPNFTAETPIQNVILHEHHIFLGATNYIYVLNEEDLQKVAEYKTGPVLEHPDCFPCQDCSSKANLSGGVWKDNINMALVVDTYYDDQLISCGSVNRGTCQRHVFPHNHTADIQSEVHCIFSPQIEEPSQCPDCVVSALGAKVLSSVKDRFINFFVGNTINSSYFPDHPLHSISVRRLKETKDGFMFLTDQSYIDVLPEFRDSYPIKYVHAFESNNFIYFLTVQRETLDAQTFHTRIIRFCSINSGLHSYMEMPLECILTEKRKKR
T2 sequence (P08581 other isoform, or with tags, fused parts or gaps limits assumed, chain 1 of 2): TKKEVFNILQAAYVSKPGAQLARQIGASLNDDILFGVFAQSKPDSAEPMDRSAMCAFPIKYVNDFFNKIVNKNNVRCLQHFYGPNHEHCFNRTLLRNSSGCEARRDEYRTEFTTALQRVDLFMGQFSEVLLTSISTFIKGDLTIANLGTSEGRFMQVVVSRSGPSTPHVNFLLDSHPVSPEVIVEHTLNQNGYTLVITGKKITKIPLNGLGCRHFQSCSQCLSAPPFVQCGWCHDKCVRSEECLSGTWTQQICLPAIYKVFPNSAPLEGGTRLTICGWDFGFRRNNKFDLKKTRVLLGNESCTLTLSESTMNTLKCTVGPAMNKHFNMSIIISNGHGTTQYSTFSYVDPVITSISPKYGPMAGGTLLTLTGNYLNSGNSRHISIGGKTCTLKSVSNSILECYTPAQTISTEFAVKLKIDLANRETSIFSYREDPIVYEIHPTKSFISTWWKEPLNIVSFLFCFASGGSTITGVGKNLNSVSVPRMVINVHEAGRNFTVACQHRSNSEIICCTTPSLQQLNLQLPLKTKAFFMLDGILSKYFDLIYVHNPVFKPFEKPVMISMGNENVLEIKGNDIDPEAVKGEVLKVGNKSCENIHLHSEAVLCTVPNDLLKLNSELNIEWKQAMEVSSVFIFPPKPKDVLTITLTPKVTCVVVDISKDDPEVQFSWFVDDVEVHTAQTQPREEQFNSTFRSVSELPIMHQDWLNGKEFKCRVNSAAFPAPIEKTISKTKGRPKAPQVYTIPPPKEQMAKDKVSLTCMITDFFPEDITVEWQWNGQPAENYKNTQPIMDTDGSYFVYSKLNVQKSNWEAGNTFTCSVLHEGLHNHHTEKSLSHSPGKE
T2 sequence (P08581 27-307 limits assumed, chain 2 of 2): as the sequence (P08581 27-307 limits assumed, chain 2 of 2) above

B1: H4H13306P2 (antibody, human IgG4, V domains shown)
VH: EVQLVESGGGLVQPGTSLRLSCAASGFTFDDYAMHWVRQAPGKGLEWVSGITWNSYNIDYADSVKGRFTISRDNAKNSLYLQMNSLRAEDTALYYCAKDDDYSNYVYFDYWGQGTLVTVSS
VL: not shown
notes: human IgG4 Fc (H4H), bivalent monospecific; also called parental antibody 1; M1
Kd [1]: 109 nM | T½ [1]: 0.7 min | Kd [2]: 2.15 nM | T½ [2]: 4.4 min | T½ [3]: 0.7 min

B2: H4H14637D (bispecific antibody, human IgG4, V domains shown)
VH 1: QVQLVESGGGVVQPGTSLRLSCVASGFTFRNFGMHWVRQAPGKGLEWVANIWFDGSNENYVESIQGRFTISRDNSKNTLNLQMNSLRAEDSAVYYCVREGILGTTNPYDAFDVWGQGTMVTVSS
VH 2: EVQLVESGGGLVQPGGSLRLSCAASGFIVTTNYMTWLRQAPGKGLEWVSLIYSSGHTYYADSVKGRFTISRHNSKNTLYLQMDSLRAEDTAVYYCASAFAADVFDIWGQGTMVTVSS
VL: not shown
% Inhibition, HEK293/SRE-Luc Blocking Activity (HGF, 1 h mAb pre-bind) [4]: 73% | EC50, Ligand (HGF)-Independent HEK293/SRE-Luc Activation [4]: 4.1 nM | Fold Response, Ligand (HGF)-Independent HEK293/SRE-Luc Activation [4]: 2.1 fold | Relative MET Level, SNU5 cells, 18 hrs [5]: 0.49 relative to control (hFc)

B3: H4H14634D (bispecific antibody, human IgG4, V domains shown)
VH 1: QVQLQESGPGLVKPSETLSLTCTVSGDSISSYYWTWIRQPPGKGLEWIGYIFYRGGTTYNPSLKSRVTISVDTSKNQFSLKLRSVTAADTAVYYCARGDDLLVVTSVYWYIDLWGRGTLVTVSS
VH 2: B2 VH 2
VL: not shown
% Inhibition, HEK293/SRE-Luc Blocking Activity (HGF, 1 h mAb pre-bind) [4]: 85% | EC50, Ligand (HGF)-Independent HEK293/SRE-Luc Activation [4]: 0.09 nM | Fold Response, Ligand (HGF)-Independent HEK293/SRE-Luc Activation [4]: 3.4 fold | IC50, HEK293/SRE-Luc Blocking Activity (HGF, 1 h mAb pre-bind) [4]: 0.0097 nM | Relative MET Level, SNU5 cells, 18 hrs [5]: 0.45 relative to control (hFc)

B4: H4H13312P2 (antibody, human IgG4, V domains shown)
VH: B2 VH 2
VL: not shown
notes: human IgG4 Fc (H4H), bivalent monospecific; also called parental antibody 2; M2
Kd [1]: 227 nM | T½ [1]: 0.7 min | Kd [2]: 2.79 nM | T½ [2]: 6.7 min | T½ [3]: 1.4 min | EC50 (read off the curve); HGF-independent SRE-driven luciferase signal in HEK293T cells [6]: ~0.5 nM | IC50 (read off the curve); blocking of HGF-dependent SRE-driven luciferase signal in HEK293T cells [7]: ~0.4 nM

B5: H4H14639D (bispecific antibody, human IgG4, V domains shown)
VH 1: B1 VH
VH 2: B2 VH 2
VL: not shown
notes: MET x MET bispecific, expressed as human IgG4; also called bispecific antibody No. 122; MET×MET bispecific antibody
T½ [8]: 70.8 min | koff [8]: 0.000163 s⁻¹ | T½ [3]: 70.8 min | koff [3]: 0.000163 s⁻¹ | IC50 (read off the curve); blocking of HGF-dependent SRE-driven luciferase signal in HEK293T cells [7]: ~0.4 nM

B6: H4H14635D (bispecific antibody, human IgG4, V domains shown)
VH 1: QVQLVESGGGVVQPGRSLRVSCVVSGFTFSSFGMHWVRQAPDKGLEWVAVIWYDGSNDYYSDSVKGRFTISRDNSKNTLFLQMNRLRAEDTAVYYCARANNWNRFDAFDLWGQGTMVTVSS
VH 2: B2 VH 2
VL: not shown
notes: MET x MET bispecific, human IgG4; also called No. 42
% Inhibition, HEK293/SRE-Luc Blocking Activity (HGF, 1 h mAb pre-bind) [4]: 85% | EC50, Ligand (HGF)-Independent HEK293/SRE-Luc Activation [4]: 1.4 nM | Fold Response, Ligand (HGF)-Independent HEK293/SRE-Luc Activation [4]: 2.2 fold | IC50, HEK293/SRE-Luc Blocking Activity (HGF, 1 h mAb pre-bind) [4]: 0.19 nM | Relative MET Level, SNU5 cells, 18 hrs [5]: 0.27 relative to control (hFc) | IC50, 6-day in vitro cytotoxicity, A549 [9]: > 100 nM | IC50, 6-day in vitro cytotoxicity, EBC-1 [9]: > 100 nM | IC50, 6-day in vitro cytotoxicity, Hs746t [9]: > 100 nM | Max % Kill, 6-day in vitro cytotoxicity, A549 [9]: 0% | Max % Kill, 6-day in vitro cytotoxicity, EBC-1 [9]: 11% | Max % Kill, 6-day in vitro cytotoxicity, Hs746t [9]: 7% | FACS Binding (MFI Fold Above Isotype Control) [10]: 12 fold above isotype control | FACS Binding (MFI Fold Above Isotype Control) [11]: 263 fold above isotype control | FACS Binding (MFI Fold Above Isotype Control) [12]: 477 fold above isotype control | FACS Binding (MFI Fold Above Isotype Control) [13]: 18 fold above isotype control | FACS Binding (MFI Fold Above Isotype Control) [14]: 39 fold above isotype control | FACS Binding (MFI Fold Above Isotype Control) [15]: 183 fold above isotype control | FACS Binding (MFI Fold Above Isotype Control) [16]: 11 fold above isotype control

B7: H4H14640D (bispecific antibody, human IgG4, V domains shown)
VH 1: QVQLVQSGTEVKEPGASVKVSCKASGYSFTTYGISWLRQAPGQGLEWMGWISTYNGDTISAQMLQDRVTLTADTSTRTAYMELRSLRSDDTAVYYCARGHEYDSLVYSYWGQGTLVTVSS
VH 2: B2 VH 2
VL: not shown
% Inhibition, HEK293/SRE-Luc Blocking Activity (HGF, 1 h mAb pre-bind) [4]: 89% | EC50, Ligand (HGF)-Independent HEK293/SRE-Luc Activation [4]: 6.8 nM | Fold Response, Ligand (HGF)-Independent HEK293/SRE-Luc Activation [4]: 2.5 fold | IC50, HEK293/SRE-Luc Blocking Activity (HGF, 1 h mAb pre-bind) [4]: 0.52 nM | Relative MET Level, SNU5 cells, 18 hrs [5]: 0.18 relative to control (hFc)

B8: H4H14639D (bispecific antibody, human IgG4, V domains shown)
VH 1: B1 VH
VH 2: B2 VH 2
VL: not shown
notes: MET x MET bispecific, human IgG4; also called No. 122; MET×MET bispecific antibody
Relative Cell Growth (n = 3), EBC-1 cells, 0.1 µg/mL H4H14639D [17]: 0.397 relative to control | Relative Cell Growth (n = 3), EBC-1 cells, 1 µg/mL H4H14639D [17]: 0.462 relative to control | Relative MET Level, NCI-H596 cells, 18 h [18]: 0.24 relative to control (hFc) | Relative Cell Growth (n = 3), Hs746T cells, 5 µg/ml, 5 days [19]: 0.647 normalized to control | Relative Cell Growth (n = 3), NCI-H596 cells in soft agar, 5 µg/ml, two weeks [20]: 1.07 normalized to control | Relative Cell Growth (n = 3), SNU5 cells, 5 µg/ml, 5 days [21]: 0.271 normalized to control | IC50, 6-day in vitro cytotoxicity, A549 [9]: 0.17 nM | IC50, 6-day in vitro cytotoxicity, EBC-1 [9]: 0.37 nM | IC50, 6-day in vitro cytotoxicity, Hs746t [9]: 0.44 nM | Max % Kill, 6-day in vitro cytotoxicity, A549 [9]: 29% | Max % Kill, 6-day in vitro cytotoxicity, EBC-1 [9]: 66% | Max % Kill, 6-day in vitro cytotoxicity, Hs746t [9]: 35%
